Measured values as given in patent US20200102398A1 (Amgen, published 2020).

T1: soluble BCMA (sBCMA) (human, UniProt Q02223 1-54)
T1 construct: also called BCMA ECD; Biotinylated BCMA
T1 sequence: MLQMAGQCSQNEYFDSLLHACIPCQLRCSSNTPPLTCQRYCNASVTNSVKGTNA

B1: sBCMA-mAb2 (antibody, V domains shown)
VH: QSLEESGGDLVKPGASLTLTCTASGFSFSSSYWICWVRQAPGKGLEWIACIYAGSGDFTYYASWAKGRFTVSKTSSTTVTLQMTSLTAADTATYFCARDAATSYYSHYFTLWGPGTLVTVSS
VL: DVVMTQTPASVSEPVGGTVTIKCQASQSIYSGLAWYQQKPGQPPKLLIYDASDLASGVPSRFSGSGYGTEFTLTISGVQCEDAATYYCQVTHYESGVPLGGGTEVVVEG
notes: Rabbit monoclonal IgG; also called rabbit monoclonal anti-sBCMA antibody sBCMA-mAb2
B2: sBCMA-mAb1 (antibody, V domains shown)
VH: QSLEESGGDLVKPGAFLTLTCTASGFSFSSGYYICWVRQAPGKGLEWIACIYTGSSGSTDYASWAKGRFTISKTSSTTVTLQMTSLTAADTATYFCARDYGHSYWNLWGPGTLVTVSS
VL: DIVMTQTPASVEAAVGGTVTIKCQASEDISSRLAWYQQKPGQPPKLLIGAASTLASGVSSRFKGSRSGTEYTLTISDLECADAATYYCLGDYYVSSYGNAFGGGTEVVVKG
notes: Rabbit monoclonal IgG, used as purified recombinant antibody; also called rabbit monoclonal anti-sBCMA antibody sBCMA-mAb1; sBCMA-mAbl
B3: sBCMA-mAb3 (antibody, V domains shown)
VH: QEQLEESGGGLVKPGGTLTLTCKASGMDFSSYYYMCWVRQAPGKGLEWIACIFSDSGGHTAYASWAEGRFTISKTSSTTVTLQMTSLTVADTATYFCARDRRDVVYIRDLWGPGTLVTVSS
VL: ALVMTQTPSPVSAAVGGTVTISCQSSESVYNNNALAWYQQKPGQPPKLLIYGASSLASGVPSRFKGSGSGTQFTLTISDLECDDAATYYCAGYKRYNNDGHAFGGGTEVVVKG
notes: Rabbit monoclonal IgG; also called rabbit monoclonal anti-sBCMA-mAb3

Assays:
soluble BCMA (sBCMA) = target: T1, soluble BCMA (sBCMA); experiment: SPR (Biacore 3000, 25 C); mAb captured on goat anti-rabbit IgG Fc, sBCMA as analyte; 1:1 Langmuir with mass transfer
Method: Experiments were performed using a Biacore 3000 (GE Healthcare) at 25° C. The running buffer was HBS-P (10 mM HEPES, pH7.4, 150 mM NaCl, 0.05% Surfactant P-20)+0.1% BSA, and kinetics were performed at a high flowrate (100 μl/min). 10 mM Glycine, pH 1.7 was used for regeneration.
Surface preparation: A goat anti-rabbit IgG Fc (Prod. #111-005-046 from Jackson Research) was diluted 1/20 in NaAcetate, pH 5 and covalently coupled to the sample and reference Fc (Fc 1) of a CMS sensor chip using amine coupling. Individual mAbs were diluted in HBS-P+0.1% BSA and captured on either Fc 2, 3, or 4 at 0.3 μg/ml for kinetic analysis of binding to sBCMA.
Interaction Parameters: sBCMA (1.19 mg/ml stock) was injected as analyte at 600 nM, 300 nM, 150 nM, 75 nM, 37.5 nM, 18.8 nM, and 9.4 nM with the 75 nM concentrated run twice to gage reproducibility. The association rate was monitored for 2.5 minutes. The dissociation time was 20 minutes to determine more accurate kinetics for those mAbs with slower off-rates. The data was double background referenced in that both a reference Fc and a 0 nM analyte concentration were subtracted from the data. A 1:1 Langmuir binding model with mass transfer was used from the Biacore evaluation software.

sBCMA-mAb1 = target: B2; experiment: Octet: sBCMA-mAb3 on captured sBCMA-mAb1 without BCMA (sensor blocked with irrelevant IgG)

Binder	Kd (soluble BCMA (sBCMA))	koff (soluble BCMA (sBCMA))	kon (soluble BCMA (sBCMA))	binding result (sBCMA-mAb1)
B1	377 nM	0.0185 s⁻¹	49200 M⁻¹ s⁻¹	
B2	0.103 nM	6.47e-05 s⁻¹	630000 M⁻¹ s⁻¹	
B3	4.5 nM	0.00405 s⁻¹	901000 M⁻¹ s⁻¹	no binding (tested: not given)
